Test results reported in paper PMC7229829, “Distortion of double-stranded DNA structure by the binding of the restriction DNA glycosylase R.PabI” (Nucleic Acids Research, 2020).

Molecular target: the molecule itself
Experiment: SEC; Superdex 200 HR 10/30; 2 μM as a dimer loaded; 10 mM MES pH 6.0, 500 mM NaCl; oligomeric state estimated against standard proteins

Row | Protein | stoichiometry N | binding result
1 | R.PabI(Y68F-K154A) mutant (enzyme, Pyrococcus abyssi, UniProt Q9V2B6 8-226, looked up, R.PabI, restriction DNA glycosylase of Pyrococcus abyssi, residues 8-226, cloned into pET26b; Mr = 25 287 printed; the vector pET26b can add a C-terminal His tag, but the printed Mr fits residues 8-226 without a tag; also called Y68F-K154A double mutant of R.PabI; source: E. coli Rosetta(DE3)pLysS, purified (heat 80°C, TOYOPEARL AF-Heparin, Mono S)) EASVSFENGKIVVRLPITRPTSKIRVKKIENGVGIPVSTRKKSFPSDENLRDYYIEWQISFARDGKYDYELSRMVRLAHEHGILTYNDIYELLKFADDVKSYLEDKGIRRESTNEELYGFNIYEDVYPVAKKELPSGEFIGIVLKHAQRAVGYQSMVYVCIPLTNVEPSLAGRVARRNEVVKYEVPVDLMKELLKAFIIASETHKNDIVKFLRSIIGTS | 2 | 
2 | R.PabI(Y68F) mutant (enzyme, Pyrococcus abyssi, UniProt Q9V2B6 8-226, looked up, R.PabI, restriction DNA glycosylase of Pyrococcus abyssi, residues 8-226, cloned into pET26b; Mr = 25 344 printed; Called a dimer in the methods (loaded '2 μM as a dimer'); source: E. coli Rosetta(DE3)pLysS, purified (heat 80°C, TOYOPEARL AF-Heparin, Mono S)) EASVSFENGKIVVRLPITRPTSKIRVKKIENGVGIPVSTRKKSFPSDENLRDYYIEWQISFARDGKYDYELSRMVRLAHEHGILTYNDIYELLKFADDVKSYLEDKGIRRESTNEELYGFNIYEDVYPVAKKELPSGEFIGIVLKHKQRAVGYQSMVYVCIPLTNVEPSLAGRVARRNEVVKYEVPVDLMKELLKAFIIASETHKNDIVKFLRSIIGTS |  | binds
3 | R.PabI(Y68F-P27G) mutant (enzyme, Pyrococcus abyssi, UniProt Q9V2B6 8-226, looked up, R.PabI, restriction DNA glycosylase of Pyrococcus abyssi, residues 8-226, cloned into pET26b; Mr = 25 304 printed; Called a dimer in the methods (loaded '2 μM as a dimer'); also called Y68F-P27G double mutant; source: E. coli Rosetta(DE3)pLysS, purified (heat 80°C, TOYOPEARL AF-Heparin, Mono S)) EASVSFENGKIVVRLPITRGTSKIRVKKIENGVGIPVSTRKKSFPSDENLRDYYIEWQISFARDGKYDYELSRMVRLAHEHGILTYNDIYELLKFADDVKSYLEDKGIRRESTNEELYGFNIYEDVYPVAKKELPSGEFIGIVLKHKQRAVGYQSMVYVCIPLTNVEPSLAGRVARRNEVVKYEVPVDLMKELLKAFIIASETHKNDIVKFLRSIIGTS |  | binds
4 | R.PabI(Y68F-P27G-T28G) mutant (enzyme, Pyrococcus abyssi, UniProt Q9V2B6 8-226, looked up, R.PabI, restriction DNA glycosylase of Pyrococcus abyssi, residues 8-226, cloned into pET26b; Mr = 25 260 printed; Called a dimer in the methods (loaded '2 μM as a dimer'); also called Y68F-P27G-T28G triple mutant; source: E. coli Rosetta(DE3)pLysS, purified (heat 80°C, TOYOPEARL AF-Heparin, Mono S)) EASVSFENGKIVVRLPITRGGSKIRVKKIENGVGIPVSTRKKSFPSDENLRDYYIEWQISFARDGKYDYELSRMVRLAHEHGILTYNDIYELLKFADDVKSYLEDKGIRRESTNEELYGFNIYEDVYPVAKKELPSGEFIGIVLKHKQRAVGYQSMVYVCIPLTNVEPSLAGRVARRNEVVKYEVPVDLMKELLKAFIIASETHKNDIVKFLRSIIGTS |  | binds
5 | R.PabI(K154A) mutant (enzyme, Pyrococcus abyssi, UniProt Q9V2B6 8-226, looked up, R.PabI, restriction DNA glycosylase of Pyrococcus abyssi, residues 8-226, cloned into pET26b; Mr = 25 303 printed; Called a dimer in the methods (loaded '2 μM as a dimer'); PDB 3WAZ (cited) holds R.PabI(K154A) with product dsDNA; also called K154A mutant of R.PabI; source: E. coli Rosetta(DE3)pLysS, purified (heat 80°C, TOYOPEARL AF-Heparin, Mono S)) EASVSFENGKIVVRLPITRPTSKIRVKKIENGVGIPVSTRKKSFPSDENLRDYYIEWQISYARDGKYDYELSRMVRLAHEHGILTYNDIYELLKFADDVKSYLEDKGIRRESTNEELYGFNIYEDVYPVAKKELPSGEFIGIVLKHAQRAVGYQSMVYVCIPLTNVEPSLAGRVARRNEVVKYEVPVDLMKELLKAFIIASETHKNDIVKFLRSIIGTS |  | binds
6 | R.PabI(K154A-P27G-T28G) mutant (enzyme, Pyrococcus abyssi, UniProt Q9V2B6 8-226, looked up, R.PabI, restriction DNA glycosylase of Pyrococcus abyssi, residues 8-226, cloned into pET26b; Mr = 25 219 printed; Called a dimer in the methods (loaded '2 μM as a dimer'); source: E. coli Rosetta(DE3)pLysS, purified (heat 80°C, TOYOPEARL AF-Heparin, Mono S)) EASVSFENGKIVVRLPITRGGSKIRVKKIENGVGIPVSTRKKSFPSDENLRDYYIEWQISYARDGKYDYELSRMVRLAHEHGILTYNDIYELLKFADDVKSYLEDKGIRRESTNEELYGFNIYEDVYPVAKKELPSGEFIGIVLKHAQRAVGYQSMVYVCIPLTNVEPSLAGRVARRNEVVKYEVPVDLMKELLKAFIIASETHKNDIVKFLRSIIGTS |  | binds
